# Experimental data taken from US20230391837A1 (ROWAN UNIVERSITY, published 2023).
# B1: Maackia amurensis seed lectin (MASL) (other)
# chain: SDELSFTINNFVPNEADLLFQGEASVSSTGVLQLTRVENGQPQQYSVGRALYAAPVRIWDNTTGSVASFSTSFTFVVKAPNPTITSDGLAFFLAPPDSQIPSGRVSKYLGLFNNSNSDSSNQIVAVEFDTYFGHSYDPWDPNYRHIGIDVNGIESIKTVQWDWINGGVAFATITYLAPNKTLIASLVYPSNQTSFIVAASVDLKEILPEWVRVGFSAATGYPTQVETHDVLSWSFTSTLEANCDAATEN
# notes: also called Maacki amurensis seed lectin
# Molecular target: T1, human angiotensin converting enzyme 2 (ACE2) receptor on HSC-2 oral squamous cell carcinoma cells (human, UniProt Q9BYF1 18-805)
# T1 construct: whole, on cells
# Assay: live cell confocal microscopy of HSC-2 cells with Alexa 595 labeled MASL (legend prints 1.4 pM) and Alexa 647 labeled ACE2 monoclonal antibody. This is colocalisation, not a direct binding assay.
binder,measurement,value
B1,binding result,binds
